Source: patent US20070004628A1 (SALK INSTITUTE FOR BIOLOGICAL STUDIES, published 2007)

Target: T1, p75 (endogenous, mouse) (Mus musculus, UniProt Q9Z0W1 32-427)
T1 construct: Endogenous p75 of P7 mouse cerebellum and of cerebellar granule neurons; also called p75NTR
T1 sequence: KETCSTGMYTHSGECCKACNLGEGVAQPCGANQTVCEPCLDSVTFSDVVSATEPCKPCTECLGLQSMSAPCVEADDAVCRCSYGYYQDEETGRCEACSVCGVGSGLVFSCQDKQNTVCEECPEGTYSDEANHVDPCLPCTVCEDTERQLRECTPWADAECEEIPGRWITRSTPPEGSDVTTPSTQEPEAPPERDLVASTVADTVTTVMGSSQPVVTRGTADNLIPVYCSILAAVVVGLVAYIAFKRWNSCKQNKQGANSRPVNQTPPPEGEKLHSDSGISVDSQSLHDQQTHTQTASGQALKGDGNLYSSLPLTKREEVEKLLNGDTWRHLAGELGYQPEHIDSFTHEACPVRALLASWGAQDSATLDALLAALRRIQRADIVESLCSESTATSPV
Test: immunoprecipitation of P7 mouse cerebellar proteins with anti-p45 antibodies, immunoblot with anti-p75 antibodies

B1: full-length p45 (p45-FL) (receptor)
chain: MLYNVSKGVVYSDTALQGQDGDREGMWVGAGGALAPNTSSLFPPEPPGASSNIIPVYCALLATVILGLLAYVAFKCWRSHKQRQQLAKARTVELGDPDRDQRRGDSNVFVDSPPSLEPCIPSQGPHPDLGCQLYLHIPQQQQEEVQRLLMMGEPAKGWQELAGHLGYQAEAVETMACDQMPAYTLLRNWAAQEGNRATLRVLEDALAAIGREDVVQVLSSPAESSSVV
notes: Untagged full-length p45 expressed in HEK293 cells or from transfected capped RNA in CGNs; Also used here for endogenous p45 of P7 mouse cerebellum; also called PLAIDD; NRADD
binding result: binds
